Assay results from the supplement of paper PMC11246515.
± gives the standard deviation of the averaged measurements.

Experiment: total protein half-life in vivo (active degradation + dilution); higher = more stable protein
[1] = E. coli NCM3722 delta-clpP delta-lon delta-hslV, growth: N-lim chemostat, doubling time 6 h
[2] = E. coli NCM3722 delta-clpP, growth: N-lim chemostat, doubling time 6 h
[3] = E. coli NCM3722 delta-hslV, growth: N-lim chemostat, doubling time 6 h
[4] = E. coli NCM3722 delta-lon, growth: N-lim chemostat, doubling time 6 h
[5] = E. coli NCM3722 delta-smpB, growth: N-lim chemostat, doubling time 6 h
[6] = wild type E. coli NCM3722, growth: C-lim chemostat, doubling time 3 h
[7] = wild type E. coli NCM3722, growth: C-lim chemostat, doubling time 6 h
[8] = wild type E. coli NCM3722, growth: C-lim chemostat, doubling time 12 h
[9] = wild type E. coli NCM3722, growth: N-lim chemostat, doubling time 6 h
[10] = wild type E. coli NCM3722, growth: N-lim chemostat, doubling time 12 h
[11] = wild type E. coli NCM3722, growth: P-lim chemostat, doubling time 6 h
[12] = wild type E. coli NCM3722, growth: P-lim chemostat, doubling time 12 h

| Sequence | total protein half-life in vivo [1] [h] | total protein half-life in vivo [2] [h] | total protein half-life in vivo [3] [h] | total protein half-life in vivo [4] [h] | total protein half-life in vivo [5] [h] | total protein half-life in vivo [6] [h] | total protein half-life in vivo [7] [h] | total protein half-life in vivo [8] [h] | total protein half-life in vivo [9] [h] | total protein half-life in vivo [10] [h] | total protein half-life in vivo [11] [h] | total protein half-life in vivo [12] [h] |
| --- | --- | --- | --- | --- | --- | --- | --- | --- | --- | --- | --- | --- |
| MRNRTLADLDRVVALGGGHGLGRVLSSLSSLGSRLTGIVTTTDNGGSTGRIRRSEGGIAWGDMRNCLNQLITEPSVASAMFEYRFGGNGELSGHNLGNLMLKALDHLSVRPLEAINLIRNLLKVDTHLIPMSEHPVDLMAIDDQGHEVYGEVNIDQLTTPIQELLLTPNVPATREAVHAINEADLIIIGPGSFYTSLMPILLLKEIAQALRRTPAPMVYIGNLGRELSLPAANLKLESKLAIMEQYVGKKVIDAVIVGPKVDVSAVKERIVIQEVLEASDIPYRHDRQLLHNALEKALQALG | 4.62 ± 0.5 | 4.2 ± 0.13 | 4.3 ± 0.14 | 5.33 ± 0.18 | 4.5 ± 0.17 | 3.16 ± 0.085 | 5.45 ± 0.32 | 10.3 ± 1.7 | 4.6 ± 0.073 | 7.33 ± 0.076 | 6.31 ± 0.59 | 12.1 ± 0.98 |
| MRNTLIPILVAICLFITGVAILNIQLWYSAKAEYLAGARYAANNINHILEEASQATQTAVNIAGKECNLEEQYQLGTEAALKPHLRTIIILKQGIVWCTSLPGNRVLLSRIPVFPDSNLLLAPAIDTVNRLPILLYQNQFADTRILVTISDQHIRGALNVPLKGVRYVLRVADDIIGPTGDVMTLNGHYPYTEKVHSTKYHFTIIFNPPPLFSFYRLIDKGFGILIFILLIACAAAFLLDRYFNKSATPEEILRRAINNGEIVPFYQPVVNGREGTLRGVEVLARWKQPHGGYISPAAFIPLAEKSGLIVPLTQSLMNQVARQMNAIASKLPEGFHIGINFSASHIISPTFVDECLNFRDSFTRRDLNLVLEVTEREPLNVDESLVQRLNILHENGFVIALDDFGTGYSGLSYLHDLHIDYIKIDHSFVGRVNADPESTRILDCVLDLARKLSISIVAEGVETKEQLDYLNQNYITFQQGYYFYKPVTYIDLVKIILSKPKVKVVVE | 3.79 | – | – | 4.37 | 6.19 ± 0.68 | – | – | – | 4.59 | 11.9 ± 0.31 | – | – |
| MRQTKTGILLANLGTPDAPTPEAVKRYLKQFLSDRRVVDTSRLLWWPLLRGVILPLRSPRVAKLYASVWMEGGSPLMVYSRQQQQALAQRLPEMPVALGMSYGSPSLESAVDELLAEHVDHIVVLPLYPQFSCSTVGAVWDELARILARKRSIPGISFIRDYADNHDYINALANSVRASFAKHGEPDLLLLSYHGIPQRYADEGDDYPQRCRTTTRELASALGMAPEKVMMTFQSRFGREPWLMPYTDETLKMLGEKGVGHIQVMCPGFAADCLETLEEIAEQNREVFLGAGGKKYEYIPALNATPEHIEMMANLVAAYR | – | 6.11 ± 0.13 | 6.43 ± 0.78 | 5.98 ± 0.68 | 5.63 ± 0.32 | 2.96 ± 0.033 | 6.24 ± 0.92 | 10.5 ± 2.5 | 5.33 ± 0.98 | 12.1 ± 0.19 | 5.73 ± 0.36 | 12.2 ± 1.5 |
| MRRFFWLVAAALLLAGCAGEKGIVEKEGYQLDTRRQAQAAYPRIKVLVIHYTADDFDSSLATLTDKQVSSHYLVPAVPPRYNGKPRIWQLVPEQELAWHAGISAWRGATRLNDTSIGIELENRGWQKSAGVKYFAPFEPAQIQALIPLAKDIIARYHIKPENVVAHADIAPQRKDDPGPLFPWQQLAQQGIGAWPDAQRVNFYLAGRAPHTPVDTASLLELLARYGYDVKPDMTPREQRRVIMAFQMHFRPTLYNGEADAETQAIAEALLEKYGQD | 6.4 ± 0.46 | 6.3559 ± 0.0044 | 6.75 ± 0.56 | 7.41 ± 0.34 | 5.75 ± 0.39 | 3.0599 ± 3.5e-05 | – | 11.2 ± 0.38 | – | 12.4 ± 0.43 | 5.63 ± 1.1 | 13.9 ± 1.3 |
| MRRFLTTLMILLVVLVAGLSALVLLVNPNDFRDYMVKQVAARSGYQLQLDGPLRWHVWPQLSILSGRMSLTAQGASQPLVRADNMRLDVALLPLLSHQLSVKQVMLKGAVIQLTPQTEAVRSEDAPVAPRDNTLPDLSDDRGWSFDISSLKVADSVLVFQHEDDEQVTIRNIRLQMEQDPQHRGSFEFSGRVNRDQRDLTISLNGTVDASDYPHDLTAAIEQINWQLQGADLPKQGIQGQGSFQAQWQESHKRLSFNQISLTANDSTLSGQAQVTLTEKPEWQLRLQFPQLNLDNLIPLNETANGENGAAQQGQSQSTLPRPVISSRIDEPAYQGLQGFTADILLQASNVRWRGMNFTDVATQMTNKSGLLEITQLQGKLNGGQVSLPGTLDATSINPRINFQPRLENVEIGTILKAFNYPISLTGKMSLAGDFSGADIDADAFRHNWQGQAHVEMTDTRMEGMNFQQMIQQAVERNGGDVKAAENFDNVTRLDRFTTDLTLKDGVVTLNDMQGQSPVLALTGEGMLNLADQTCDTQFDIRVVGGWNGESKLIDFLKETPVPLRVYGNWQQLNYSLQVDQLLRKHLQDEAKRRLNDWAERNKDSRNGKDVKKLLEKM | 6.52 ± 0.57 | – | 6.45 ± 0.47 | 6.24 ± 0.085 | 6.43 ± 0.59 | 3.54 ± 0.42 | 6.18 ± 0.13 | 11.4 ± 0.47 | 6.231 ± 0.012 | 13 ± 0.012 | 6.266 ± 0.044 | 11.5 ± 0.13 |
| MRTISYSEARQNLSATMMKAVEDHAPILITRQNGEACVLMSLEEYNSLEETAYLLRSPANARRLMDSIDSLKSGKGTEKDIIE | 2.74 | 2 ± 0.78 | 2.66 ± 0.31 | – | 3.15 | > 4 | 1.57 ± 0.23 | 2.2 ± 1.2 | 1.8 | 2.86 ± 0.17 | 1.67 | 3.61 ± 0.31 |
| MRTSQYLLSTLKETPADAEVISHQLMLRAGMIRKLASGLYTWLPTGVRVLKKVENIVREEMNNAGAIEVSMPVVQPADLWQESGRWEQYGPELLRFVDRGERPFVLGPTHEEVITDLIRNELSSYKQLPLNFYQIQTKFRDEVRPRFGVMRSREFLMKDAYSFHTSQESLQETYDAMYAAYSKIFSRMGLDFRAVQADTGSIGGSASHEFQVLAQSGEDDVVFSDTSDYAANIELAEAIAPKEPRAAATQEMTLVDTPNAKTIAELVEQFNLPIEKTVKTLLVKAVEGSSFPQVALLVRGDHELNEVKAEKLPQVASPLTFATEEEIRAVVKAGPGSLGPVNMPIPVVIDRTVAAMSDFAAGANIDGKHYFGINWDRDVATPEVADIRNVVAGDPSPDGQGRLLIKRGIEVGHIFQLGTKYSEALKASVQGEDGRNQILTMGCYGIGVTRVVAAAIEQNYDERGIVWPDAIAPFQVAILPMNMHKSFRVQELAEKLYSELRAQGIEVLLDDRKERPGVMFADMELIGIPHTIVLGDRNLDNDDIEYKYRRNGEKQLIKTGDIVEYLVKQIKG | 5.92 ± 0.2 | 5.61 ± 0.85 | 5.37 ± 0.21 | 6.14 ± 0.13 | 5.24 ± 0.2 | 3.1 ± 0.061 | 6.12 ± 0.33 | 10.9 ± 0.57 | 5.4 ± 0.19 | 10.6 ± 0.72 | 6.14 ± 0.17 | 12.2 ± 1.2 |
| MRVENNNVSGQNHDPEQIDLIDLLVQLWRGKMTIIISVIVAIALAIGYLAVAKEKWTSTAIITQPDVGQIAGYNNAMNVIYGQAAPKVSDLQETLIGRFSSAFSALAETLDNQEEREKLTIEPSVKNQQLPLTVSYVGQTAEGAQMKLAQYIQQVDDKVNQELEKDLKDNIALGRKNLQDSLRTQEVVAQEQKDLRIRQIQEALQYANQAQVTKPQIQQTGEDITQDTLFLLGSEALESMIKHEATRPLVFSPNYYQTRQNLLDIESLKVDDLDIHAYRYVMKPMLPIRRDSPKKAITLILAVLLGGMVGAGIVLGRNALRNYNAK | 6.28 ± 0.95 | 6.967 ± 0.025 | 6.99 ± 0.87 | 6.083 ± 0.046 | 6.13 ± 0.13 | 3.05 ± 0.051 | 5.61 ± 0.062 | 11.1 ± 1.2 | 6.07 ± 0.17 | 12 ± 1.5 | 5.97 ± 0.15 | 12.1 ± 0.5 |
